Source: article PMC7939549, “LAP2alpha maintains a mobile and low assembly state of A-type lamins in the nuclear interior” (eLife, 2021)

Molecular target: T1, lamin A/C (endogenous, mEos3.2-lamin A/C WT mouse dermal fibroblasts) (mouse (endogenous in mouse dermal …, UniProt P48678 1-647))
T1 construct: lamins A and C, both products of the mouse Lmna gene, precipitated together by lamin A/C antibodies; WT clone #21 expresses mEos3.2-tagged lamin A/C (mEos3.2 in frame before the first codon, N-terminal) from 1 allele and untagged lamin A/C from 3 alleles; the precipitated pool holds tagged and untagged lamins A and C; also called lamins A and C; A-type lamins; source: endogenous, mEos3.2-Lmna WT …
T1 sequence (looked up): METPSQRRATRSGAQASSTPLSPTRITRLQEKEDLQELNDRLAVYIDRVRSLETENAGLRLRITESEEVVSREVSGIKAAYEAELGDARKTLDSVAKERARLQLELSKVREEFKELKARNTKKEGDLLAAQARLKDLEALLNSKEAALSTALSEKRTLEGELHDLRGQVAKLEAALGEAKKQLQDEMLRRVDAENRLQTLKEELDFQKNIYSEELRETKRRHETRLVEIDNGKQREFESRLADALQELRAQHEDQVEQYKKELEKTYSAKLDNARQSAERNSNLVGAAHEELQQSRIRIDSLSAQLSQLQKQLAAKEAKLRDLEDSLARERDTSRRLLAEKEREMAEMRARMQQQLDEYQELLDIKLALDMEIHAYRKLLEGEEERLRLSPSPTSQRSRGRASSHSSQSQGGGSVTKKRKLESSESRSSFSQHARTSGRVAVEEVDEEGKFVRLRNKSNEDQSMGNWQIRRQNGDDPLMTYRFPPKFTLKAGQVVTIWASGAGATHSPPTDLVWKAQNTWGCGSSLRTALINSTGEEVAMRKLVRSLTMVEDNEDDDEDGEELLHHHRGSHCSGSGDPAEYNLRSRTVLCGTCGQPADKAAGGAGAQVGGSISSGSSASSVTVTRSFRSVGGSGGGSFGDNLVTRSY
Experiment: not stated; our unpublished data; ratio of mEos3.2-lamin A and LAP2α in the complex

B1: LAP2α (endogenous, mouse dermal fibroblasts) (natural protein, UniProt Q61033 1-693, looked up)
chain: MPEFLEDPSVLTKDKLKSELVANNVTLPAGEQRKDVYVQLYLQHLTARNRPPLAAGANSKGPPDFSSDEEREPTPVLGSGASVGRGRGAVGRKATKKTDKPRLEDKDDLDVTELSNEELLDQLVRYGVNPGPIVGTTRKLYEKKLLKLREQGTESRSSTPLPTVSSSAENTRQNGSNDSDRYSDNDEGKKKEHKKVKSARDCVPFSELASTPSGAFFQGISFPEISTRPPLGRTELQAAKKVQTTKRDPPRETCTDTALPGKGQTHKLAPGRSLFIPSESSYDRCVEKSSSPSSQREFAARLVSAAASPSLIRETTTTYSKDIVENICRGGKSRAQPLRAEEPGVSDQSVFSSEREVLQESERSQVISPPLAQAIRDYVNSLLVQGGVGSLPGTSDSVPTLDVENICKRLSQSSYQDSESLSPPRKVPRLSEKPARGGDSGSCVAFQNTPGSEHRSSFAKSVVSHSLTTLGVEVSKPPPQHDKIEASEPSFPLHESILKVVEEEWQQIDRQLPSVACRYPVSSIEAARILSVPKVDDEILGFISEATPRAATQASSTESCDKHLDLALCRSYEAAASALQIAAHTAFVAKSLQADISQAAQIINSDPSDAQQALRILNRTYDAASYLCDAAFDEVRMSACAMGSSTMGRRYLWLKDCKISPASKNKLTVAPFKGGTLFGGEVHKVIKKRGNKQ
notes: lamin-associated polypeptide 2 alpha (LAP2α), mouse, endogenous, detected with antibody 1H11; also called lamin-associated polypeptide 2 alpha; source: endogenous, mEos3.2-Lmna WT mouse dermal fibroblasts, soluble cell extract
- stoichiometry N: 1
